Earlier results, collected in patent US20090011987A1, “Use of Glp-2 for the Treatment of Ischemia-Reperfusion Injury” (Novo Nordisk A/S, priority 2005, published 2009).

Conditions: adult human plasma

GLP-2(1-33) [wild type human GLP-2(1-33)]
half-life: lower than 2 hours
